Data: publication PMC7055914

Target: S. Typhi PltB (pertussis-like toxin B subunit) homopentamer (Salmonella enterica serovar Typhi) (UniProt Q8Z6A3)
Experiment: […], sodium acetate pH 4.4) […]

S. Typhi PltB (pertussis-like toxin B subunit) homopentamer (from UniProt Q8Z6A3) (natural protein)
stoichiometry N: 5
